Measurements reported in article PMC7954791, “MAGIs regulate aPKC to enable balanced distribution of intercellular tension for epithelial sheet homeostasis” (Communications Biology, 2021).

Biological target: T1, ankyrin-repeat-, SH3-domain- and proline-rich-region-containing protein 2 (ASPP2), FLAG-tagged (UniProt Q8CG79 1-1128)
T1 construct: ASPP2, FLAG-tagged, co-expressed with HA-MAGI-3 in a heterologous expression system; HEK293 is probably the host; also called FLAG-ASPP2; source: heterologous expression system, in lysate
T1 sequence (looked up): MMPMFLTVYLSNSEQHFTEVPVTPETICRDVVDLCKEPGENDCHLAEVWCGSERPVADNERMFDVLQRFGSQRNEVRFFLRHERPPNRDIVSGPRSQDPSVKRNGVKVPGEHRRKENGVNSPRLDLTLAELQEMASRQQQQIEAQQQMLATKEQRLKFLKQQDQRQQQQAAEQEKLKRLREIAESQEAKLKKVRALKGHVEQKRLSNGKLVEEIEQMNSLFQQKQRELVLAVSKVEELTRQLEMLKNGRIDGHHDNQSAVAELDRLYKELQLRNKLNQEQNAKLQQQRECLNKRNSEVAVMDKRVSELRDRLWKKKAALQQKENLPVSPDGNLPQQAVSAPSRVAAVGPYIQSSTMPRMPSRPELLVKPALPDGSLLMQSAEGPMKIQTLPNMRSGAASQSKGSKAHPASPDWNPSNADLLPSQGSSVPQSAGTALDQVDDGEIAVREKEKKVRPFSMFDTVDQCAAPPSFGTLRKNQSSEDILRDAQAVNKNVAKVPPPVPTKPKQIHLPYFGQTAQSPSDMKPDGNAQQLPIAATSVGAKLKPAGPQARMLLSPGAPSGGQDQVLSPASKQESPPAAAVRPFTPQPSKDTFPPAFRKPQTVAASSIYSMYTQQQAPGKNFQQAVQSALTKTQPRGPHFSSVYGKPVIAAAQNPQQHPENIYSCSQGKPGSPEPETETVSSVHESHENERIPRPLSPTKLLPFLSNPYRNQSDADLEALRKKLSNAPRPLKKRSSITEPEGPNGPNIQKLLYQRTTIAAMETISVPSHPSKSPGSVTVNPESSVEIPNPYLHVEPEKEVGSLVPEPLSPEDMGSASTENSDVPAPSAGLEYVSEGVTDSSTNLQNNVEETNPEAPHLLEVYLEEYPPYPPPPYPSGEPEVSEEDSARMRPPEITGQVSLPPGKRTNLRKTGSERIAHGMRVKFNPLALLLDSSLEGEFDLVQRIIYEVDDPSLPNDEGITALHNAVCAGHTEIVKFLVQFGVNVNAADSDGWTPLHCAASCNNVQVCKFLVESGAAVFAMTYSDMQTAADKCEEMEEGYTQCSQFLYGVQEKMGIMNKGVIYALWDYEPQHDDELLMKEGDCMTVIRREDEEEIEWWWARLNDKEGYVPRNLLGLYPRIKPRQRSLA
Assay: co-IP; FLAG immunoprecipitation in a heterologous expression system; FLAG-ASPP2 and HA-MAGI-3 co-expressed with GFP-RASSF10; 20 mM Tris-HCl pH 7.5, 150 mM NaCl, 1% Triton X-100; blot quantified, normalised to GFP control
Settings: partners not purified

B1: MAGI-3 (natural protein, UniProt Q9EQJ9 1-1476, looked up)
chain: MSKTLKKKKHWLSKVQECAVSWAGPPGDLGAEIRGGAERGEFPYLGRLRDEAGGGGGTCCVVSGKAPSPGDVLLEVNGTPVSGLTNRDTLAVIRHFREPIRLKTVKPGKVINKDLRHYLSLQFQKGSIDHKLQQVIRDNLYLRTIPCTTRAPRDGEVPGVDYNFISVEQFKALEESGALLESGTYDGNFYGTPKPPAEPSPFQPDPVDQVLFDNEFDTESQRKRTTSVSKMERMDSSLPEEEEDEDKEAVNGSGSMETREMHSETSDCWMKTVPSYNQTNSSMDFRNYMMRDENLEPLPKNWEMAYTDTGMIYFIDHNTKTTTWLDPRLCKKAKAPEDCEDGELPYGWEKIEDPQYGTYYVDHLNQKTQFENPVEEAKRKKQLGQAEIHSAKTDVERAHFTRDPSQLKGVLVRASLKKSTMGFGFTIIGGDRPDEFLQVKNVLKDGPAAQDGKIAPGDVIVDINGNCVLGHTHADVVQMFQLVPVNQYVNLTLCRGYPLPDDSEDPVVDIVAATPVINGQSLTKGETCMNTQDFKLGAMVLDQNGKSGQILASDRLNGPSESSEQRASLASSGSSQPELVTIPLIKGPKGFGFAIADSPTGQKVKMILDSQWCQGLQKGDIIKEIYHQNVQNLTHLQVVEVLKQFPVGADVPLLILRGGPCSPTKTAKTKTDTKENSGSLETINEPIPQPMPFPPSIIRSGSPKLDPSEVYLKSKTLYEDKPPNTKDLDVFLRKQESGFGFRVLGGDGPDQSIYIGAIIPLGAAEKDGRLRAADELMCIDGIPVKGKSHKQVLDLMTTAARNGHVLLTVRRKIFYGEKQPEDESHQAFSQNGSPRLNRAELPTRSAPQEAYDVTLQRKENEGFGFVILTSKSKPPPGVIPHKIGRVIDGSPADRCGGLKVGDHISAVNGQSIVDLSHDNIVQLIKDAGVTVTLTVVAEEEHHGPPSGTNSARQSPALQHRPMGQAQANHIPGDRIALEGEIGRDVCSSYRHSWSDHKHLAQPDTAVISVVGSRHNQSLGCYPVELERGPRGFGFSLRGGKEYNMGLFILRLAEDGPAIKDGRIHVGDQIVEINGEPTQGITHTRAIELIQAGGNKVLLLLRPGTGLIPDHGDWDTNSPSSSNVIYDEQPPPLPSSHSASTFEESHVPATEDSLTRVQICEKAEELKDTVQEKKSTLNGSQPEMKYQSVHKTMSKKDPPRGSGHGEKSRLKGENGVTRRGRSASPKKSVNRHSEEHLEKIPRPLKSDPKEKSRDRSLSPRKGESKGRLTIKAGSGQDPYRKDRGRSSSPKKQQKIGGNSLSNTEGKLSEAGSRRAAGHPRDSTEQLPDGREKSGVSRKDLKQSQPGKTRTKSPEKKSSKVDETSLPSKKTSSTAGRVVSEKEKGKKPTAGETSRETVEHTQISAKQLKQEAQEKTALGNADDHKGRESEVTDRCRERAGCTPQSSSLVKKAPITPGPWRVPRANKVTGTTGMADKQL
notes: MAGI-3, expressed in a heterologous expression system for FLAG immunoprecipitation; HEK293 is probably the host; also called HA-MAGI-3; MAGI proteins; source: heterologous expression system, in lysate
**Q.** With B1 as the binder, how does the “fold co-precipitation with GFP-RASSF10 co-expressed, over GFP alone” value read?
**A.** ~4 fold
